# The nanobody polyreactivity screen of Harvey et al. (2022)
# Assay: yeast display, Sf9 membrane polyspecificity reagent, FACS + sequencing; frameworks hold sequencing errors
# Summary of the method: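 A synthetic nanobody library was expressed on Saccharomyces cerevisiae BJ5465 by galactose induction for 36–48 hours. The library was stained for 1 hour at 4 °C with 10% biotinylated, detergent-solubilized Sf9 membrane reagent and enriched with streptavidin microbeads before FACS. Low and high (top ~1%) gates were set on anti-HA fluorescence for expression and streptavidin fluorescence for reagent binding, and each polyreactivity label reflects the gate of origin.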
row,Sequence,polyreactivity (PSR sort gate)
1,QVQLVESGGCLVQAGGSLRLSCAASGSTFVYNTMGWYRQAPGKERELVASISSDGNTYYADSVKGRFTISRDNAKNTVYLQMNSLKPEDTAVYYCAARYYYDWRFVGYDYWGQGTQVTVSS,low polyreactivity
2,QVQLVESGGCLVQAGGSLRLSCAASGYIFQWYDMGWYRPAPGKERELVAAISVTTGSTYYADSVKGRFTISRDNAQKTVYLQMNSLKPEDTAVYYCAAVSWYRHDMYYWGHGTQVTVSS,low polyreactivity
3,QVQLVESGGCLVQAGGSLRLSCAASRRIYYYTMGWYRQPPGKERELGATITSSGSSTYYADSVKGRFTISRDNAMNTVYLQMNSLKPEDTAVYYCAAGDRRYQRRYYYWGQGTQVTVSS,high polyreactivity
4,QVQLVESGGCLVQAGGSLRLSCAGSGSIFDGYAMGWYRQAPGKERELVADINNGADTYYADSVKGRFTISRDKAKNTVYLQMNTLKTEDTAVYYCAARYGTDTDIQNVARYDYWGQGTQVTVSS,low polyreactivity
5,QVQLVESGGCLVQAGGSLRLSCASSGITFFEYAMGCYRQAPGKERELVAVITSGGSTNYADSVKGRFTISRDNAKNTVYLQMNSLKPEDTAVYYCNARVVKYRWWYDYYYWGQGTQVTVSS,low polyreactivity
6,QVQLVESGGCLVQAGGSLRLSCDASGSIFYRNVIGWYRQAPGKERELVATISRGGTTNYADSVKGRFTISRDNAKNTVYLQMNSLKPEDTAVYYCAADASSKLYDYWGQGTQVTVSS,low polyreactivity
7,QVQLVESGGCLVQAGGSLRLSCPASGSTIGKYAMGWYRQAPRKERELFATITVSGGNTNYADSVKGRITISRDNAKITVYLQMNSLKPEDTAVYYCAARKYVAGHKYIMKYWGQGTQVTVSS,low polyreactivity
8,QVQLVESGGCLVQAGGSLRLSCSASGRTFNWKAMGWYRPAPGKERELVAVITSSGTRTYYADSVKGRFTISRDNAKNTVSLQMNSLKPEDTAVYYCANGETYTGPNSRYGQWKKVYYWGQGTQVTVSS,low polyreactivity
9,QVQLVESGGCLVQAGGSLRLSSAASGFIFYYNAMGWYRQEPGKESELVATIRGSGGSTYYADSVKGRFTISRDNAKNTVYLQMNSLKPEDTAVYYCAASVQYRRLKKFYYWGQGTQVTVSS,high polyreactivity
10,QVQLVESGGCLVQAGGSLRLSSAASGITFYLYAMGWYRKAPGKVRELVATISRSGGSTYADSVKGRFTISRDNAKNTVYLQMHSMKPEDTAVYYCNADLLSTGFIAYDYWGQGTQVTVSS,low polyreactivity
11,QVQLVESGGCLVQAGGSLRLSSAPSGSTFPVNAMGWYRQAAGKERELVAAITYRDGDTYYADSVKGRFTISRDYAKNTVYLQMNSLKPEDTAVYYCNADVGRHGKNSHMDYWGHGTQVTVSS,low polyreactivity
12,QVQLVESGGCLVQAGGTLRLSCAASGFTFGNNGMGWYRQAPGKERELVATISWSGGSTDADSVKGRFTISRDNAKNTVYLQMNSLKPEDTAVSYCAARPRWYFFSYGRQDDGSWGQGTQVTVSS,low polyreactivity
13,QVQLVESGGCLVQAGGTLRLSCAASGFTIRSNAMGWYRQAPGKERELVADISHGGGTSYADSVKGRFTISRDNAKNTVYLQRNSLKPEDTAVYYCAADLSTYVNYWWEYYYWGQGSQVTVSS,low polyreactivity
14,QVQLVESGGCLVQAGGTLRLSCAASGSIFWAYAMGWYRQAPGKERELVAAISRGGTTTYADSVKGRFTISRDNAKNTVYLQMNSLKPEDTAVYYCARRAVYSKRRYDYWGQGTQVTVSS,low polyreactivity
15,QVQLVESGGCLVQAVGSLRLSCAASAFTFTQYGRGWYRQASGKEREFVATIRFSGDTTYYADSVKRRFTITRDHAKNTAYLQMNRLKPEDPAVYYCNADNRAFFVYPGSNRYDSWGQGTQVTVSS,low polyreactivity
16,QVQLVESGGCLVQEGGSLRLSCAASGFTFRWYTMGWYRQAPGKERELVASIRYGGGSTYYADSVKGRFTISRDNAKNTVYLQMNSLKPEDTAVYYCAAYVRTYRGYYWKAFDYWGQGTQVTVSS,high polyreactivity
17,QVQLVESGGCLVQSGGSLRLSCAASGIIISSYAMGWYRQAPGKERELVADIRSGGSTNYADSVKGRFTISRDNAKNTVYLQMNSLKPEDTAVSDCNADTFQWWDSAAVYVIVKYGYWGHGTQVTVSS,low polyreactivity
